This is an account of results in US20140057323A1, “ENHANCED CELLODEXTRIN METABOLISM” (The Board of Trustees of the University of Illinois, priority 2011, published 2014).

Substrate in data set [1]: OC[C@H]1O[C@@H](O[C@H]2[C@H](O)[C@@H](O)C(O)O[C@@H]2CO)[C@H](O)[C@@H](O)[C@@H]1O
The data set can be described thus: Kinetic parameters of purified SdCBP (glucose oxidase/peroxidase assay). It counts as biochemical, Saccharophagus degradans. Particulars: other: SdCBP, glucose production from cellobiose, 50 mM phosphate pH 6.0. The procedure:
(§1) The amount of cellobiase activity in cell extracts was determined by the Glucose oxidase/Peroxidase assay. […] The number of pmol of glucose produced per second was calculated by multiplying the rate of increase at 436 nm by 1.17×10^3, a conversion that was established from a glucose standard curve.
(§2) GH1-1 and SdCBP were purified directly from the D452-2 yeast strains described above. 200 mL cultures in DOB-uracil-leucine were grown to an OD (600 nm) of ˜7. Cells were pelleted and washed 1× with 40 mL ddH2O. Cell pellets were resuspended in 25 mL of 50 mM NaH2PO4 [pH 8.0], 300 mM NaCl, 10 mM imidazole, 2 mM DTT, and Roche Complete EDTA-free Protease Inhibitor Cocktail, and lysed by passage through an Avestin EmulsiFlex C-3 homogenizer at 20,000 P.S.I. Cell debris was then pelleted, and proteins purified using Nickel-NTA agarose beads from Qiagen following the protocol for native batch purification provided by Qiagen. Protein eluted from the beads was buffer exchanged into a buffer consisting of phosphate buffered saline (PBS), 10% glycerol, and 2 mM DTT, snap-frozen in (1)N2 and stored at −80° C. Protein concentrations were determined by the absorbance at 280 nm using extinction coefficients of 108750 M^−1 cm^−1 and 178540 M^−1 cm^−1, for GH1-1 and SdCBP, respectively.
(§3) A 1 mL assay included either […] of GH1-1 or […] SdCBP.
(§4) To assay the transglycosylation activity of GH1-1 and SdCBP, both enzymes were enriched from cell extracts by IMAC. […] The kinetic parameters of the enriched proteins were also measured, and the results are depicted in FIG. 12 and quantified in Table 12.

Substrate in data set [2]: OC[C@H]1O[C@@H](O[C@H]2[C@H](O)[C@@H](O)C(O)O[C@@H]2CO)[C@H](O)[C@@H](O)[C@@H]1O
The data set can be described thus: cells, lysate or membranes. Particulars: other: CDT-1 WT, [3H]-cellobiose uptake, pH 5.6.

Substrate in data set [3]: OC[C@H]1O[C@@H](O[C@H]2[C@H](O)[C@@H](O)C(O)O[C@@H]2CO)[C@H](O)[C@@H](O)[C@@H]1O
The data set can be described thus: Transporter kinetics, [3H]-cellobiose uptake into yeast. The class given is cell-based, Neurospora crassa. Particulars: pH 5.6.

Substrate in data set [4]: OC[C@H]1O[C@@H](O[C@H]2[C@H](O)[C@@H](O)C(O)O[C@@H]2CO)[C@H](O)[C@@H](O)[C@@H]1O
The data set is described as follows: Kinetic parameters of purified GH1-1 (glucose oxidase/peroxidase assay). The class given is biochemical, Neurospora crassa. Particulars: other: GH1-1, glucose production from cellobiose, 50 mM phosphate pH 6.0. The procedure: as §1, §2, §3, §4

B1: Saccharophagus degradans cellobiose phosphorylase SdCBP, wild type, SEQ ID NO: 12 (Saccharophagus degradans 2-40) (protein)
chain: MKFGHFDDKAREYVITDPKTPYPWINYLGNEDFFSLVSNTGGGYSFYKDAKFRRLTRYRYNNVPVDNGGKYFYINDSGDVWSPGWKPVKAELDAYSCAHGLSYTRITGERNGIQAEVLSFIPLGTWAEIQKVSLKNTSGATKKFKLFSFAEWCLWNAEDDMTNFQRNFSTGEVEVEDSVIYHKTEFKERRNHYAFYSVNAPIQGFDTDRDKWKGLYNDFDKPDAVFEGEPRNSEAHGWSPIASHYLEVELAPGESKDLIFVLGYIEVAPENKWESKGVINKSPAKELIARFDSVEKVDAELTKLADYWANLLSTYSVESGDEKLDRMVNIWNQYQCMVTFNMSRSASFFESGIGRGMGFRDSNQDLIGFVHQVPERARERIIDIASTQFEDGSAYHQYQPLTKRGNNAIGGNFNDDPLWLILSTTDYIKETGDFSILEEQVPYDNDASKATSHFEHLKRSFYHTVNNLGPHGLPLIGRADWNDCLNLNCFSEDPNESFQTTGNKTGRTAESLMIAGLFVLYGNEFVKLCREIGQDGEAAEAQAHIDQMVEAVKKHGWDGEWFLRAYDYYGKKVGSKENEEGKIFIESQGFCGMAGIGLEDGLVEKSMDSVKEWLDCDYGIVLQQPAFTKYYIEYGEISTYPAGYKENAGIFCHNNPWIMITETLLGRGDKAFEYYRKIAPAYLEEISDLHKVEPYAYCQMIAGKDAYLPGEGKNSWLTGTASWNFAAITQYILGVKPDYSGLAINPCIPSSWDGFKVTRKYRGATYNIIVTNPTHVSKGVKSLTLNGNAIDGYIVPPQQAGTVCNVEVTLG
For B1, in data set [1], the Michaelis-Menten constant (Km) amounted to 650 µM, the kcat amounted to 7 s⁻¹ and the kcat/Km stood at 11500 M⁻¹ s⁻¹.

B2: Neurospora crassa cellodextrin transporter CDT-1 (NCU00801), wild type, SEQ ID NO: 9, GFP-tagged, in S. cerevisiae D452-2 (Neurospora crassa OR74A) (protein)
chain: MSSHGSHDGASTEKHLATHDIAPTHDAIKIVPKGHGQTATKPGAQEKEVRNAALFAAIKESNIKPWSKESIHLYFAIFVAFCCACANGYDGSLMTGIIAMDKFQNQFHTGDTGPKVSVIFSLYTVGAMVGAPFAAILSDRFGRKKGMFIGGIFIIVGSIIVASSSKLAQFVVGRFVLGLGIAIMTVAAPAYSIEIAPPHWRGRCTGFYNCGWFGGSIPAACITYGCYFIKSNWSWRIPLILQAFTCLIVMSSVFFLPESPRFLFANGRDAEAVAFLVKYHGNGDPNSKLVLLETEEMRDGIRTDGVDKVWWDYRPLFMTHSGRWRMAQVLMISIFGQFSGNGLGYFNTVIFKNIGVTSTSQQLAYNILNSVISAIGALTAVSMTDRMPRRAVLIIGTFMCAAALATNSGLSATLDKQTQRGTQINLNQGMNEQDAKDNAYLHVDSNYAKGALAAYFLFNVIFSFTYTPLQGVIPTEALETTIRGKGLALSGFIVNAMGFINQFAGPIALHNIGYKYIFVFVGWDLIETVAWYFFGVESQGRTLEQLEWVYDQPNPVKASLKVEKVVVQADGHVSEAIVA
As to B2, the Km in data set [2] worked out at 7.6 ± 1.5 µM.

B3: Neurospora crassa cellodextrin transporter CDT-1 (SEQ ID NO: 9) variant F335A, GFP-tagged, in S. cerevisiae D452-2 (Neurospora crassa OR74A; F335A) (protein)
chain: MSSHGSHDGASTEKHLATHDIAPTHDAIKIVPKGHGQTATKPGAQEKEVRNAALFAAIKESNIKPWSKESIHLYFAIFVAFCCACANGYDGSLMTGIIAMDKFQNQFHTGDTGPKVSVIFSLYTVGAMVGAPFAAILSDRFGRKKGMFIGGIFIIVGSIIVASSSKLAQFVVGRFVLGLGIAIMTVAAPAYSIEIAPPHWRGRCTGFYNCGWFGGSIPAACITYGCYFIKSNWSWRIPLILQAFTCLIVMSSVFFLPESPRFLFANGRDAEAVAFLVKYHGNGDPNSKLVLLETEEMRDGIRTDGVDKVWWDYRPLFMTHSGRWRMAQVLMISIAGQFSGNGLGYFNTVIFKNIGVTSTSQQLAYNILNSVISAIGALTAVSMTDRMPRRAVLIIGTFMCAAALATNSGLSATLDKQTQRGTQINLNQGMNEQDAKDNAYLHVDSNYAKGALAAYFLFNVIFSFTYTPLQGVIPTEALETTIRGKGLALSGFIVNAMGFINQFAGPIALHNIGYKYIFVFVGWDLIETVAWYFFGVESQGRTLEQLEWVYDQPNPVKASLKVEKVVVQADGHVSEAIVA
notes: [3H]-cellobiose uptake
As to B3, the Km in data set [3] (other: CDT-1 F335A) was determined as 114.8 ± 46.4 µM.

B4: Neurospora crassa cellodextrin transporter CDT-1 (SEQ ID NO: 9) variant G91A, GFP-tagged, in S. cerevisiae D452-2 (Neurospora crassa OR74A; G91A) (protein)
chain: MSSHGSHDGASTEKHLATHDIAPTHDAIKIVPKGHGQTATKPGAQEKEVRNAALFAAIKESNIKPWSKESIHLYFAIFVAFCCACANGYDASLMTGIIAMDKFQNQFHTGDTGPKVSVIFSLYTVGAMVGAPFAAILSDRFGRKKGMFIGGIFIIVGSIIVASSSKLAQFVVGRFVLGLGIAIMTVAAPAYSIEIAPPHWRGRCTGFYNCGWFGGSIPAACITYGCYFIKSNWSWRIPLILQAFTCLIVMSSVFFLPESPRFLFANGRDAEAVAFLVKYHGNGDPNSKLVLLETEEMRDGIRTDGVDKVWWDYRPLFMTHSGRWRMAQVLMISIFGQFSGNGLGYFNTVIFKNIGVTSTSQQLAYNILNSVISAIGALTAVSMTDRMPRRAVLIIGTFMCAAALATNSGLSATLDKQTQRGTQINLNQGMNEQDAKDNAYLHVDSNYAKGALAAYFLFNVIFSFTYTPLQGVIPTEALETTIRGKGLALSGFIVNAMGFINQFAGPIALHNIGYKYIFVFVGWDLIETVAWYFFGVESQGRTLEQLEWVYDQPNPVKASLKVEKVVVQADGHVSEAIVA
notes: [3H]-cellobiose uptake
For B4, the Michaelis constant (Km) in data set [3] (other: CDT-1 G91A) came to 43.5 ± 10.1 µM.

B5: Neurospora crassa cellodextrin transporter CDT-1 (SEQ ID NO: 9) variant F213L, GFP-tagged, in S. cerevisiae D452-2 (Neurospora crassa OR74A; F213L) (protein)
chain: MSSHGSHDGASTEKHLATHDIAPTHDAIKIVPKGHGQTATKPGAQEKEVRNAALFAAIKESNIKPWSKESIHLYFAIFVAFCCACANGYDGSLMTGIIAMDKFQNQFHTGDTGPKVSVIFSLYTVGAMVGAPFAAILSDRFGRKKGMFIGGIFIIVGSIIVASSSKLAQFVVGRFVLGLGIAIMTVAAPAYSIEIAPPHWRGRCTGFYNCGWLGGSIPAACITYGCYFIKSNWSWRIPLILQAFTCLIVMSSVFFLPESPRFLFANGRDAEAVAFLVKYHGNGDPNSKLVLLETEEMRDGIRTDGVDKVWWDYRPLFMTHSGRWRMAQVLMISIFGQFSGNGLGYFNTVIFKNIGVTSTSQQLAYNILNSVISAIGALTAVSMTDRMPRRAVLIIGTFMCAAALATNSGLSATLDKQTQRGTQINLNQGMNEQDAKDNAYLHVDSNYAKGALAAYFLFNVIFSFTYTPLQGVIPTEALETTIRGKGLALSGFIVNAMGFINQFAGPIALHNIGYKYIFVFVGWDLIETVAWYFFGVESQGRTLEQLEWVYDQPNPVKASLKVEKVVVQADGHVSEAIVA
notes: [3H]-cellobiose uptake
Regarding B5, in data set [3] (other: CDT-1 F213L), the Km was 188.8 ± 55.3 µM.

B6: Neurospora crassa β-glucosidase GH1-1 (NCU00130) (Neurospora crassa OR74A) (protein)
chain: MSLPKDFLWGFATAAYQIEGAIHADGRGPSIWDTFCNIPGKIADGSSGAVACDSYNRTKEDIDLLKSLGATAYRFSISWSRIIPVGGRNDPINQKGIDHYVKFVDDLLEAGITPFITLFHWDLPDGLDKRYGGLLNREEFPLDFEHYARTMFKAIPKCKHWITFNEPWCSSILGYNSGYFAPGHTSDRTKSPVGDSAREPWIVGHNLLIAHGRAVKVYREDFKPTQGGEIGITLNGDATLPWDPEDPLDVEACDRKIEFAISWFADPIYFGKYPDSMRKQLGDRLPEFTPEEVALVKGSNDFYGMNHYTANYIKHKKGVPPEDDFLGNLETLFYNKKGNCIGPETQSFWLRPHAQGFRDLLNWLSKRYGYPKIYVTENGTSLKGENAMPLKQIVEDDFRVKYFNDYVNAMAKAHSEDGVNVKGYLAWSLMDNFEWAEGYETRFGVTYVDYENDQKRYPKKSAKSLKPLFDSLIKKD
Consider B6, for which, in data set [4], the Michaelis constant (Km) is 320 µM, the kcat is 7 s⁻¹ and the kcat/Km was 21900 M⁻¹ s⁻¹.
